Test [1] deals with T1, pituitary adenylate cyclase-activating peptide, 38-amino acid peptide (PACAP38) (human, not fully specified).
T1 construct: The background calls the active forms alpha-amidated
T1 peptide: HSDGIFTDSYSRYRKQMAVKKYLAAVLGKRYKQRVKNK
The experiment in a line: SPR; target PACAP38. The method, then: (§1) In brief, antibody and peptide interaction was determined on a Biacore S200 (GE Healthcare) by method previously described (Andreu and Gomes 2002). An anti-Human IgG Fc capture antibody was immobilized on a CM5 biosensor chip via standard amine coupling. Anti-PACAP antibodies were injected and captured to 200 to 400 response units (RU),). PACAP38, PACAP27 and VIP were diluted in HBS-EP+buffer containing 0.1% w/v BSA (Bovostar, catalog number BSAS1.0) and 0.15 M NaCl (Sigma-Aldrich catalog number S7653), pH 7.4. Binding kinetics of antibodies were determined by injection of two-fold serial dilutions of PACAPs (12 nm to 0 nM) and VIP (1200 nM to 0 nM) in running buffer at 37° C. with a flow rate of 40 uL/min for 2 min followed by a dissociation for 10 minutes. For subsequent cycles, the chip was regenerated using 0.85% phosphoric acid. Data was analysed with the Biacore S200 Evaluation Software (ver 1.0). Association rate (kₐ) and dissociation rate (kd) constants were determined using a simple one-to-one Langmuir binding model and used to calculate the equilibrium dissociation constant (KD).
(§2) The selectivity of antibody 890C was assessed by comparing the inhibition of PACAP38-signalling to inhibition of VIP-signalling in a cyclic AMP (cAMP) measuring cell-based functional assay.

The target of test [2] is T2, Gastric inhibitory polypeptide (GIP).
T2 peptide: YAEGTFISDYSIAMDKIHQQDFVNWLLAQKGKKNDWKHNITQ
The experiment in a line: SPR (Biacore), captured antibody, 37.5 nM peptide injected at 37 C, relative response after 15 sec dissociation. The method, then: (§3) The anti-PACAP antibodies, e.g., 890C, were tested against related peptides in the Secretin Glucagon family (Table 10) to determine the presence and extent of any off-target binding. Nine bioactive peptides in the glucagon superfamily are: PACAP, VIP, glucagon, Glucagon-Like Peptides (GLP-1, GLP-2), Growth Hormone Releasing Factor (GRF or GHRF), Peptide Histidine Methionine (PHM), secretin, and Gastric inhibitory polypeptide (GIP). Following capture of antibodies as described in example 4, the antibody and the peptide interaction was measured by injection of 37.5 nM of each peptide diluted in buffer at 37° C. with a flow rate of […] for 2 min followed by a dissociation phase of 4-5 min. Samples were injected in a multi-cycle manner over freshly captured anti-PACAP antibody, by regenerating the capture surfaces with two injections of 0.85% phosphoric acid at a flow rate of 30 μL/min.
as §2
(SPR reads the build-up and loss of mass on a sensor chip optically.)

The target in test [3] is T3, Glucagon-Like Peptide 2 (GLP-2).
T3 peptide: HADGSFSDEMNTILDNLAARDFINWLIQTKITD
Described as above. The method, then: as §3, §2

Test [4] deals with T4, Growth Hormone Releasing Factor (GRF or GHRF).
T4 construct: the listing entry is to be used
T4 peptide: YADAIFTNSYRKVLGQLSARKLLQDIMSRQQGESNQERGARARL
The test is described as above. As to the method: as §3, §2

For test [5], the target named is T5, Peptide Histidine Methionine (PHM).
T5 peptide: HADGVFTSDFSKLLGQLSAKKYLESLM
The description is as above. As to the method:
as §3, §2

In test [6] the target is T6, Glucagon-Like Peptide 1 (GLP-1).
T6 peptide: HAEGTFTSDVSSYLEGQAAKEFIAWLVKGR
The description is as above. As to the method: as §3, §2

The target of test [7] is T7, Secretin.
T7 construct: the listing entry is to be used
T7 peptide: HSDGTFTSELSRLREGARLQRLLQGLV
The test is described as above. The method, then: as §3, §2

The target of test [8] is Glucagon. The description is as above. The method, then: as §3, §2
In test [9] the target is T1, pituitary adenylate cyclase-activating …. Description: SPR (Biacore) off-rate ranking, antibody captured from supernatant, single injection of 33.3 nM PACAP38. As to the method: as §1, with “Binding kinetics of antibodies were determined by injection of two-fold serial dilutions of PACAPs (12 nm to 0 nM) and VIP (1200 nM to 0 nM) in running buffer at 37° C. with a flow rate of 40 uL/min for 2 min followed by a dissociation for 10 minutes.” left out

Test [10] has as its target T8, pituitary adenylate cyclase-activating peptide, 27-amino acid peptide (PACAP27) (human, not fully specified).
T8 peptide: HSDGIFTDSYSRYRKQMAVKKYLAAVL
Description: SPR; target PACAP27. As to the method: as §1, §2

Test [11] deals with T1, pituitary adenylate cyclase-activating …. Description: SPR (Biacore), 37 C, antibody captured by anti-human IgG Fc, PACAP-38 as analyte. The method, then:
as §1

Test [12] has the same target. The experiment in a line: cell-based or functional assay.
Test [13] has the same target. The experiment in a line: cell-based or functional assay.
Test [14] concerns the target T9, vasoactive intestinal peptide (VIP) (human).
T9 peptide: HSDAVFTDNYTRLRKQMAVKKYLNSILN
The experiment in a line: cell-based or functional assay.

The target in test [15] is T1, pituitary adenylate cyclase-activating …. The experiment in a line: cell-based or functional assay.
Test [16] has the same target. The experiment in a line: cell-based or functional assay.
Test [17] addresses T9, vasoactive intestinal peptide (VIP). Description: SPR; target VIP. As to the method: as §1, §2
Test [18] has the same target. Description: SPR (Biacore S200), 37 C, captured antibody, steady state binding.
Test [19] deals with T8, pituitary adenylate cyclase-activating …. Description: SPR (Biacore S200), 37 C, captured antibody, two-fold dilutions of peptide, 1:1 Langmuir model.
The target in test [20] is T1, pituitary adenylate cyclase-activating …. The test is described as above.

Where a chain is given by its changes, count along the chain named. Names may count otherwise.

Sequence of Glucagon (peptide, as listed by the source): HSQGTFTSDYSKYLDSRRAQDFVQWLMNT

B1: anti-PACAP antibody 890C (antibody, human IgG4 S228P, kappa, V domains shown)
VH: EVQLVQSGAEVKKPGSSVKVSCKASGGTFSDVYMHWVRQAPGQGLEWMGLIYPIFADTRYAQKFQGRVTITADESTSTAYMELSSLRSEDTAVYYCAIDQDGSFAYWGQGTLVTVSS
VL: DIVMTQSPDSLAVSLGERATINCKSSQSLLDADGKTYLNWLQQKPGQPPKRLIYWASTRESGVPDRFSGSGSGTDFTLTISSLQAEDVAVYYCWQGTWFDLTFGGGTKVEIKR
notes: LC S(27E)A, G29, L50W, V51A, K53T, L54R, D55E, H93W, P95D
By Kd is commonly meant a measure of binding affinity in units of concentration. Read a low Kd as a tighter complex. One may read the koff as the rate constant with which the complex falls apart. As usually defined, the kon is the rate constant with which the complex forms. B1: the dissociation constant Kd in test [1] stood at 0.054 nM; in test [9], 0.0284 nM; in [10], 0.218 nM; in test [11], 0.0284 nM; in [17] it was 390 nM. For the same molecule, the binding result in [2], in test [3], in [4], in test [5], in test [6] and in test [7] was “no binding (tested: 37.5 nM)” throughout. Further, in test [8], the binding result is “no binding (tested: 37.5 nM)”. Besides, the koff in test [9] and in [11] was 0.000671 s⁻¹ in each case. Further, the kon in [9] and in test [11] was 2.36e+07 M⁻¹ s⁻¹ each time. In addition, the “IC50 (nM), PACAP-induced cAMP accumulation in CHO-K1 receptor cell lines (cAMP-Glo)” value in test [12] is 0.32 nM. Further, the “IC50 (nM), inhibition of PACAP-induced cAMP accumulation” value in test [13] came out at 0.32 nM. Also, the “IC50 (read off the curve), VIP-induced cAMP production in CHO-K1 cells expressing VPAC1” value in [14] is approximately 600 nM. For the same molecule, the “fold shift of the VIP/VPAC1 inhibition curve relative to the PACAP/PAC1 inhibition curve (selectivity)” value in test [14] was 1400 fold. The “IC50 (read off the curve), PACAP38-induced cAMP production in CHO-K1 cells expressing PAC1” value in [15] was approximately 0.4 nM. Moreover, the “selectivity, inhibition of PACAP38-induced cAMP production (PAC1 cells) versus VIP-induced cAMP production (VPAC1 cells)” value in [16] was more than 1000 fold.

B2: anti-PACAP antibody 605C (antibody, V domains shown)
VH: B1 VH with V32S
VL: DIVMTQSPDSLAVSLGERATINCKSSQSLLDADGKTYLNWLQQKPGQPPKRLIYWASTRESGVPDRFSGSGSGTDFTLTISSLQAEDVAVYYCWQGTWFDLTFGGGTKVEIK
B2: the equilibrium dissociation constant (Kd) worked out at 0.017 nM in test [9]; 225 nM in [18]; 0.154 nM in [19]; 0.0328 nM in test [20]; 0.017 nM in test [11]. The koff is 0.000566 s⁻¹ in test [9], 0.00101 s⁻¹ in test [19], 0.000565 s⁻¹ in test [20] and 0.000566 s⁻¹ in [11]. Further, the kon was found to be 3.33e+07 M⁻¹ s⁻¹ in [9], 6.58e+06 M⁻¹ s⁻¹ in test [19], 1.72e+07 M⁻¹ s⁻¹ in test [20] and 3.33e+07 M⁻¹ s⁻¹ in test [11]. For the same molecule, the “IC50 (nM), inhibition of PACAP-induced cAMP accumulation” value in test [13] was found to be 0.15 nM.

For the origin of these results see patent publication US20260234227A1 (CEPHALON, published 2026).
